Patent EP4673749A1 (dated 2026)

T1: non-sense peptide GSPGKDGVRG
T1 construct: Control peptide
T1 peptide: GSPGKDGVRG

T2: elongated peptide CPTGPQNYSPQ (human)
T2 construct: the peptide tested is printed with Pro at that position
T2 peptide: CPTGPQNYSPQ

T3: Pro-C3 target sequence CPTGPQNYSP (C-terminal neo-epitope of PIIINP, residues 144-153 of the alpha1 chain) (human)
T3 construct: Synthetic peptide with free C-terminus (-COOH)
T3 peptide: CPTGPQNYSP

T4: truncated peptide KPGVISVMG
T4 construct: Synthetic peptide, American Peptide Company
T4 peptide: KPGVISVMG

T5: PRO-C6 sequence KPGVISVMGT (last 10 amino acids of the type VI collagen alpha3 chain, 3168-3177)
T5 construct: also called selection peptide; immunogenic peptide
T5 peptide: KPGVISVMGT

T6: elongated peptide KPGVISVMGTA
T6 construct: Synthetic peptide, Chinese Peptide Company
T6 peptide: KPGVISVMGTA


Assays:
[1] = target: T1, non-sense peptide GSPGKDGVRG; assay: antibody characterization with peptides (ELISA, as previously described)
[2] = target: T2, elongated peptide CPTGPQNYSPQ; assay: as above
[3] = target: T3, Pro-C3 target sequence CPTGPQNYSP …; assay: as above
[4] = target: T4, truncated peptide KPGVISVMG; assay: hybridoma clone screening with peptides
[5] = target: T5, PRO-C6 sequence KPGVISVMGT (last 10 …); assay: hybridoma clone screening with peptides
[6] = target: T6, elongated peptide KPGVISVMGTA; assay: hybridoma clone screening with peptides

Row | Binder | binding result [1] | binding result [2] | binding result [3] | binding result [4] | binding result [5] | binding result [6]
1 | Pro-C3 monoclonal antibody (monoclonal antibody NB61N-62) (antibody, mouse IgG2a, kappa, V domains shown) VH: EVQLQQSGPEVLKPGASVKMSCKASGYTFINYVIHWLKQKAGQGPEWIGYMNPYNDVPKNNAKFRGKARLTSDRSSTTAYMELNSLTSEDSAVYYCARGGFFGPLSYWGQGTLVTVSA VL: DVLMTQTPLSLSVSLGDQASISCRSSQNIVYSNGDTYFEWYLQKPGQSPKLLIYKVSQRFSGVPDRFSGSGSGTDFTLKISRVETEDLGVYYCFQGAHDPPAFGGGTKLELKR | no binding | no binding | binds |  |  | 
2 | PRO-C6 monoclonal antibody 10A3 (antibody, mouse IgG1, kappa, V domains shown, Mouse IgG1 / kappa; also called monoclonal antibody specific for PRO-C6) VH: EVQLQQSGPVMVKPGTSVKTSCKASGYTFTDFNMNWVKQSHGKSLEWIGAINPHNGATSYNQKFSGKATLTVDKSSSTAYMELNSLTSDDSAVYYCARWGNGKNSWGQGTTLTVSS VL: DVVMTQTPLSLPVNLGDQASISCRSSQRIVHSNGITFLEWYLQKPGQSPKLLIYRVSNRFSGVPDRFSGSGSGTDFTLKISRVEAEDLGLYYCFQGSHVPLTFGAGTRLELKR |  |  |  | no binding | binds | no binding
